Results published in paper PMC4777826, “Crystal Structure of the CTP1L Endolysin Reveals How Its Activity Is Regulated by a Secondary Translation Product*^([image sbox.jpg])” (The Journal of Biological Chemistry, 2015).

Experiments:
[1] = molecular target: CTP1L endolysin K190S/G191S, ribosomal binding site knock-out (RBSKO) (bacteriophage ΦCTP1); test: native MS; CBDHis titrated to 10 μM full-length CTP1L RBSKO at molar ratios 1:1, 1:2, 1:3 and 1:6 (full-length:CBDHis), 150 mM ammonium acetate pH 7.4; ratios of species from simulated peaks, three measurements
[2] = molecular target: CBDHis, CTP1L(195-274) with a C-terminal His tag (bacteriophage ΦCTP1); test: native MS; nano-ESI of each purified sample by itself (wild-type gene products, CBDHis, RBSKO mutants), 150 mM ammonium acetate pH 7.4
[3] = molecular target: CD27L endolysin RBSKO mutant (E181S/G182S) (bacteriophage (targets Clostridium difficile)) (UniProt B6SBV8); test: as above
[4] = molecular target: CTP1L endolysin, full-length (wild type) (bacteriophage ΦCTP1); test: as above
[5] = molecular target: CTP1L endolysin, full-length (wild type) (bacteriophage ΦCTP1); test: native MS; nano-ESI of the sample made from the codon-optimised CTP1L gene with the silent C→G back mutation (less truncated CBD made), 150 mM ammonium acetate pH 7.4
[6] = molecular target: truncated C-terminal cell wall binding domain of CTP1L (secondary translation product) (bacteriophage ΦCTP1); test: native MS; nano-ESI of each purified sample by itself (wild-type gene products, CBDHis, RBSKO mutants), 150 mM ammonium acetate pH 7.4
[7] = molecular target: the molecule itself; test: as above

“CBDHis, CTP1L(195-274) with a C-terminal His tag (domain or fragment)” showed a ratio of species, 1:1 heterodimer (full-length:CBDHis 1:1) (ratio (total 1.0)) [1] of 0.26, a ratio of species, 1:1 heterodimer (full-length:CBDHis 1:2) (ratio (total 1.0)) [1] of 0.29 and a ratio of species, 1:1 heterodimer (full-length:CBDHis 1:3) (ratio (total 1.0)) [1] of 0.27. The ratio of species, 1:1 heterodimer (full-length:CBDHis 1:6) (ratio (total 1.0)) [1] was 0.31, the ratio of species, 1 FLCTP1L: 3 CBDHis heterotetramer (full-length:CBDHis 1:1) (ratio (total 1.0)) [1] was 0.09 and the ratio of species, 1 FLCTP1L: 3 CBDHis heterotetramer (full-length:CBDHis 1:2) (ratio (total 1.0)) [1] was 0.19. The ratio of species, 1 FLCTP1L: 3 CBDHis heterotetramer (full-length:CBDHis 1:3) (ratio (total 1.0)) [1] was 0.27, the ratio of species, 1 FLCTP1L: 3 CBDHis heterotetramer (full-length:CBDHis 1:6) (ratio (total 1.0)) [1] was 0.38 and the ratio of species, 2 FLCTP1L: 2 CBDHis heterotetramer (full-length:CBDHis 1:1) (ratio (total 1.0)) [1] was 0.3. The ratio of species, 2 FLCTP1L: 2 CBDHis heterotetramer (full-length:CBDHis 1:2) (ratio (total 1.0)) [1] was 0.32, the ratio of species, 2 FLCTP1L: 2 CBDHis heterotetramer (full-length:CBDHis 1:3) (ratio (total 1.0)) [1] was 0.26 and the ratio of species, 2 FLCTP1L: 2 CBDHis heterotetramer (full-length:CBDHis 1:6) (ratio (total 1.0)) [1] was 0.17. It also gave a ratio of species, free FLCTP1L monomer (full-length:CBDHis 1:1) (ratio (total 1.0)) [1] of 0.4, a ratio of species, free FLCTP1L monomer (full-length:CBDHis 1:2) (ratio (total 1.0)) [1] of 0.2 and a ratio of species, free FLCTP1L monomer (full-length:CBDHis 1:3) (ratio (total 1.0)) [1] of 0.2. For the same molecule, the ratio of species, free FLCTP1L monomer (full-length:CBDHis 1:6) (ratio (total 1.0)) [1] was 0.14 and the stoichiometry N [2] was 2.

Work on “CD27L endolysin RBSKO mutant (E181S/G182S) (from UniProt B6SBV8 1-270) (enzyme)” yielded a stoichiometry N [3] of 2.

In the case of “truncated C-terminal cell wall binding domain of CTP1L (secondary translation product)”, the ratio of species, free FLCTP1L monomer (wild-type sample) (ratio (total 1.0)) [4] is reported as 0.03.

“truncated C-terminal cell wall binding domain of CTP1L (secondary translation product) (domain or fragment)” gave a ratio of species, 1:1 heterodimer (C→G sample) (ratio (total 1.0)) [5] of 0.09, a ratio of species, 2 FLCTP1L: 2 CBD heterotetramer (C→G sample) (ratio (total 1.0)) [5] of 0.62 and a ratio of species, free FLCTP1L monomer (C→G sample) (ratio (total 1.0)) [5] of 0.28. For the same molecule, the ratio of species, 1:1 heterodimer (wild-type sample) (ratio (total 1.0)) [4] was 0.12, the ratio of species, 1 FLCTP1L: 3 CBD heterotetramer (wild-type sample) (ratio (total 1.0)) [4] was 0.14 and the ratio of species, 2 FLCTP1L: 2 CBD heterotetramer (wild-type sample) (ratio (total 1.0)) [4] was 0.72. It also gave a stoichiometry N [6] of 4.

B1: CD27L endolysin, full-length (wild type) (enzyme, UniProt B6SBV8 1-270, looked up)
chain: MKICITVGHSILKSGACTSADGVVNEYQYNKSLAPVLADTFRKEGHKVDVIICPEKQFKTKNEEKSYKIPRVNSGGYDLLIELHLNASNGQGKGSEVLYYSNKGLEYATRICDKLGTVFKNRGAKLDKRLYILNSSKPTAVLIESFFCDNKEDYDKAKKLGHEGIAKLIVEGVLNKNINNEGVKQMYKHTIVYDGEVDKISATVVGWGYNDGKILICDIKDYVPGQTQNLYVVGGGACEKISSITKEKFIMIKGNDRFDTLYKALDFINR
notes: CD27L endolysin, a bacteriophage endolysin that targets Clostridium difficile; The wild-type sample also holds the truncated CBD; also called FLCD27L; source: E. coli BL21(DE3), pET15b, purified (Ni-NTA)
B1 was tested, and the “stoichiometry N” value [7] was 2.
